Results as given in publication PMC6396125 (ACS Omega, 2019).
Values joined by “and” are separate entries in the source; they are usually repeats but may differ in a detail not shown here. Identical values can stand only once. Like-named read-outs stand apart in the source and are kept apart here. Ends that are not written are not given here.

What was measured:
L. lactis OppA = biological target: T1, L. lactis OppA (Lactococcus lactis subsp. lactis, UniProt Q07741); experiment: Fluorescence anisotropy competition binding assay
T1 sequence (Q07741 35-600 limits assumed): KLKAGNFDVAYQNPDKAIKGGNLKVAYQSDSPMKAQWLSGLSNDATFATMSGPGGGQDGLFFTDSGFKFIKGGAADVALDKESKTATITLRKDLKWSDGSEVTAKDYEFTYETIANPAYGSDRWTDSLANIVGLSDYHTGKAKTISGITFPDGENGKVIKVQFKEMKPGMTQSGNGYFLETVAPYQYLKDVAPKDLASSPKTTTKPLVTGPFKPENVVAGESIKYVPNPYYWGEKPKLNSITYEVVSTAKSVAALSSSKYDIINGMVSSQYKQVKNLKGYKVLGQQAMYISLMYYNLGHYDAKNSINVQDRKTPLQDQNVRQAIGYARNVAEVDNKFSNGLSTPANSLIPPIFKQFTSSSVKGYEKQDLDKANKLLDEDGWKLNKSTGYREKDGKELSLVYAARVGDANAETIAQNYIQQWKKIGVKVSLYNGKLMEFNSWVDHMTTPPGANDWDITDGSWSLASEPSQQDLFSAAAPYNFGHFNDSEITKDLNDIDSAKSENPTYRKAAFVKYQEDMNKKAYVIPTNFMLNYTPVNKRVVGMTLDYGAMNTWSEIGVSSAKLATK

[1] = biological target: bradykinin labeled with sulforhodamine 101 on the C-terminus; experiment: fluorescence polarisation
[2] = biological target: Lactococcus lactis oligopeptide-binding protein A (OppA) (Lactococcus lactis subspecies cremoris MG1363); experiment: fluorescence polarisation
[3] = biological target: Lactococcus lactis oligopeptide-binding protein A (OppA) (Lactococcus lactis subspecies cremoris MG1363); experiment: fluorescence polarisation; remark: listed apart in the source
[4] = biological target: Lactococcus lactis oligopeptide-binding protein A (OppA) (Lactococcus lactis subspecies cremoris MG1363); experiment: fluorescence polarisation; remark: listed apart in the source
[5] = biological target: Lactococcus lactis oligopeptide-binding protein A (OppA) (Lactococcus lactis subspecies cremoris MG1363); experiment: fluorescence polarisation; remark: listed apart in the source

| Compound | Kd (L. lactis OppA) | IC50 [3] | Kd [3] | also measured |
| --- | --- | --- | --- | --- |
| CC[C@H](C)[C@H](NC(=O)[C@H](CCCNC(=N)N)NC(=O)[C@H](CCCNC(=N)N)NC(=O)[C@H](CC(C)C)NC(=O)[C@H](Cc1ccccc1)NC(=O)CNC(=O)CNC(=O)[C@@H](N)Cc1ccc(O)cc1)C(=O)N[C@@H](CCCNC(=N)N)C(=O)N1CCC[C@H]1C(=O)N[C@@H](CCCCN)C(=O)N[C@@H](CC(C)C)C(=O)N[C@@H](CCCCN)C(=O)N[C@@H](Cc1c[nH]c2ccccc12)C(=O)N[C@@H](CC(=O)O)C(=O)N[C@@H](CC(N)=O)C(=O)N[C@@H](CCC(N)=O)C(=O)O [dynorphin-A (1–17)] | 3.3 ± 0.6 µM |  |  |  |
| Lactococcus lactis oligopeptide-binding protein A (OppA) (natural protein) |  |  |  | Kd [1]: 22.9 µM and 15.4 µM |
| SFRNGVGSGVKKTSFRRAKQ [neuropeptide S] |  |  |  | IC50 from competition binding assay (L. lactis OppA; pH 6, 30 °C, vs prebound bradykinin-SR101 (1 μM) + OppA (15 μM) mixture, at least 1 h, mean ± SD, n = 3): no fit |
| SLSQSKVLPVPQ [casein-derived peptide] | 0.2 ± 0.01 µM |  |  |  |
| YGGFLRRIR [dynorphin-A (1–9)] | 13.3 ± 0.7 µM |  |  |  |
| bradykinin (peptide) |  | 5.2 µM | 0.13 µM | Kd [2]: 0.4 µM; IC50 [4]: 5.1 µM and 5.3 µM and 5.6 µM; Kd [4]: < 0.1 µM and 0.31 µM; Kd [5]: 0.2 µM and 0.36 µM and 0.7 µM |
| dynorphin-A (1–9) (peptide) |  | 34.2 µM | 13.3 µM |  |
| dynorphin-A (1–17) (peptide) |  | 11 µM | 3.3 µM |  |
| leu-enkephalin (peptide) |  | 2000 µM |  |  |
| neuropeptide S |  |  | 1800 µM |  |
